Square brackets hold non-standard residues; d marks the D form. Ends that are not written are not given here. Aib = CC(C)(N)C(=O)O
T1: human glucose-dependent insulinotropic peptide receptor (human, UniProt P48546)
T1 sequence: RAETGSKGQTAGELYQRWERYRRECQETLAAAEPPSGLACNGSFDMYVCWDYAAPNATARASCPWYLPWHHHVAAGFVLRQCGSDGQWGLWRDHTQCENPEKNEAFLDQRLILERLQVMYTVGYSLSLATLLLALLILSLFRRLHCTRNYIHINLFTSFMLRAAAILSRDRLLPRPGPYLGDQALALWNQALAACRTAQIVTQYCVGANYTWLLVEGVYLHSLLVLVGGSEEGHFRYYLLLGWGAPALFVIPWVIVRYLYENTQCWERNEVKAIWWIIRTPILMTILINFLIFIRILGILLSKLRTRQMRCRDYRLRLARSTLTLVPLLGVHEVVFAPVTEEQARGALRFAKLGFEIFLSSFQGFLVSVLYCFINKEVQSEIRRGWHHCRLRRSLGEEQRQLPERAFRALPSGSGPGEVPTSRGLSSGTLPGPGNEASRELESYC


Tests used:
[1] = molecular target: T1, human glucose-dependent insulinotropic …; assay: cell-based or functional assay
[2] = molecular target: human glucagon-like peptide-1 receptor (human, UniProt P43220); assay: cell-based or functional assay

| Binder | Activity for human GIPR (EC50 nM), cAMP HTRF [1] [nM] | Activity for human GLP-1R (EC50 nM), cAMP HTRF [2] [nM] |
| --- | --- | --- |
| Y[Aib]EGTFTSDYSIYLE[Aib]EAAKEFVNWLLAGGPSSGAPPPSK-NH2 (N-terminus assumed; SMILES CC[C@H](C)[C@H](NC(=O)[C@H](CO)NC(=O)[C@H](Cc1ccc(O)cc1)NC(=O)[C@H](CC(=O)O)NC(=O)[C@H](CO)NC(=O)[C@@H](NC(=O)[C@H](Cc1ccccc1)NC(=O)[C@@H](NC(=O)CNC(=O)[C@H](CCC(=O)O)NC(=O)C(C)(C)NC(=O)[C@@H](N)Cc1ccc(O)cc1)[C@@H](C)O)[C@@H](C)O)C(=O)N[C@@H](Cc1ccc(O)cc1)C(=O)N[C@@H](CC(C)C)C(=O)N[C@@H](CCC(=O)O)C(=O)NC(C)(C)C(=O)N[C@@H](CCC(=O)O)C(=O)N[C@@H](C)C(=O)N[C@@H](C)C(=O)N[C@@H](CCCCN)C(=O)N[C@@H](CCC(=O)O)C(=O)N[C@@H](Cc1ccccc1)C(=O)N[C@H](C(=O)N[C@@H](CC(N)=O)C(=O)N[C@@H](Cc1c[nH]c2ccccc12)C(=O)N[C@@H](CC(C)C)C(=O)N[C@@H](CC(C)C)C(=O)N[C@@H](C)C(=O)NCC(=O)NCC(=O)N1CCC[C@H]1C(=O)N[C@@H](CO)C(=O)N[C@@H](CO)C(=O)NCC(=O)N[C@@H](C)C(=O)N1CCC[C@H]1C(=O)N1CCC[C@H]1C(=O)N1CCC[C@H]1C(=O)N[C@@H](CO)C(=O)N[C@@H](CCCCN)C(N)=O)C(C)C) [Compound No. 12] | 0.081 | 0.013 |
| Y[Aib]EGTFTSDYSIYLEKEAQKEFVNWLLAGGPSSGAPPPSK-NH2 (N-terminus assumed; SMILES CC[C@H](C)[C@H](NC(=O)[C@H](CO)NC(=O)[C@H](Cc1ccc(O)cc1)NC(=O)[C@H](CC(=O)O)NC(=O)[C@H](CO)NC(=O)[C@@H](NC(=O)[C@H](Cc1ccccc1)NC(=O)[C@@H](NC(=O)CNC(=O)[C@H](CCC(=O)O)NC(=O)C(C)(C)NC(=O)[C@@H](N)Cc1ccc(O)cc1)[C@@H](C)O)[C@@H](C)O)C(=O)N[C@@H](Cc1ccc(O)cc1)C(=O)N[C@@H](CC(C)C)C(=O)N[C@@H](CCC(=O)O)C(=O)N[C@@H](CCCCN)C(=O)N[C@@H](CCC(=O)O)C(=O)N[C@@H](C)C(=O)N[C@@H](CCC(N)=O)C(=O)N[C@@H](CCCCN)C(=O)N[C@@H](CCC(=O)O)C(=O)N[C@@H](Cc1ccccc1)C(=O)N[C@H](C(=O)N[C@@H](CC(N)=O)C(=O)N[C@@H](Cc1c[nH]c2ccccc12)C(=O)N[C@@H](CC(C)C)C(=O)N[C@@H](CC(C)C)C(=O)N[C@@H](C)C(=O)NCC(=O)NCC(=O)N1CCC[C@H]1C(=O)N[C@@H](CO)C(=O)N[C@@H](CO)C(=O)NCC(=O)N[C@@H](C)C(=O)N1CCC[C@H]1C(=O)N1CCC[C@H]1C(=O)N1CCC[C@H]1C(=O)N[C@@H](CO)C(=O)N[C@@H](CCCCN)C(N)=O)C(C)C) [Compound No. 11] | 0.014 | 0.08 |

Reference: patent US20220168396A1, “MULTI-RECEPTOR AGONIST AND MEDICAL USE THEREOF” (published 2022)
